According to patent US12460006B2, “Antibodies against integrin alpha 11 beta 1” (Momenta Pharmaceuticals, Inc., priority 2019, dated 2025):

T1: α11β1 expressed on the surface of CHO-K1 cells (Homo sapiens, UniProt Q9UKX5)
T1 construct: expressed in transfected cells; host or cells: CHO-K1
T1 sequence (Q9UKX5 23-1188): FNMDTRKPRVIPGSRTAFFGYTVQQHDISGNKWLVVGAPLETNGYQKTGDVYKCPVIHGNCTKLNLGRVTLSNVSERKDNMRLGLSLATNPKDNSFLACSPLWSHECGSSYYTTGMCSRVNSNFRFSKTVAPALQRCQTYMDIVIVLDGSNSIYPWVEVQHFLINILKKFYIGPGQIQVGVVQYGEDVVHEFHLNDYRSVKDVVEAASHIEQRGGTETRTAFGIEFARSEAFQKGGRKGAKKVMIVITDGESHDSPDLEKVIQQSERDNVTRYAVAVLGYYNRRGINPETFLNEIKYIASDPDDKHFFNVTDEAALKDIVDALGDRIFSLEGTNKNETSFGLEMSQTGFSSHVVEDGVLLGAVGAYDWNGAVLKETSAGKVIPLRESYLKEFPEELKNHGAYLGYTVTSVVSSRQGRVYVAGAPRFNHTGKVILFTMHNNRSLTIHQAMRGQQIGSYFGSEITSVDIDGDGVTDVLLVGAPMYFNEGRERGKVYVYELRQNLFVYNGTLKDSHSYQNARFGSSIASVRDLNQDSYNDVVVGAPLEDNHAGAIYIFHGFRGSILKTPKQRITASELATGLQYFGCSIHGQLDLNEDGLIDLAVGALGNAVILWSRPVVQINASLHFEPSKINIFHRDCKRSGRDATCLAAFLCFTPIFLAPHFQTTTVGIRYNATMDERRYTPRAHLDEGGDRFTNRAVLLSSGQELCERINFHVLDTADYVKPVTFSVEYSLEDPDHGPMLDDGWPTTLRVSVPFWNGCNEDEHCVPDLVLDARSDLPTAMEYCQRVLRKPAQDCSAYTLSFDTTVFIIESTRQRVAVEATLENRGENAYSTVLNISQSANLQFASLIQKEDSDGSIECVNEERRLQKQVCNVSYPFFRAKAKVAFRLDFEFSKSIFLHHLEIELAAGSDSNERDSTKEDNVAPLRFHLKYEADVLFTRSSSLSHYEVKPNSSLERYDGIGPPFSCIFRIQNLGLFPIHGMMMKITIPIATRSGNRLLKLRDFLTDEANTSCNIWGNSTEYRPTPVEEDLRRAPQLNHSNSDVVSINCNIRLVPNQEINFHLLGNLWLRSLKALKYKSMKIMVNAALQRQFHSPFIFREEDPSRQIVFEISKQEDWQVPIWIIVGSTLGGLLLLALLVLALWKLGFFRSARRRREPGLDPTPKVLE


How the values were obtained:
human α11β1 = human α11β1 (Homo sapiens, UniProt Q9UKX5); experiment: ELISA binding to recombinant human α11β1; conditions: binding Yes/No
Experimental: (§1) 0.25 μg/mL of target antigen (recombinant human or mouse α11β1) was plated in a 96-well plate over night at 4° C. Plates were washed (PBS with 0.1% Tween-20), blocked (PBS with 2% BSA and 0.05% Tween-20) for 1 hour at room temperature and incubated with a range of antibody concentrations for 1 hour at room temperature. Subsequently, plates were washed and incubated with biotinylated anti-rabbit/mouse/human IgG in a 1:1000 dilution buffer and incubated for 1 hour at room temperature. After washing the plates, Streptavidin HRP was added at 1:200 in dilution buffer and incubated for 1 hour at room temperature. Ultra TMB ELISA substrate solution was added and the plates incubated for 5 minutes on a plate shaker. The reaction was stopped by adding stop solution to each well and plates were read at 450 nm.

α1β1, α2β1 and/or α10β1 = experiment: Counter-screen for cross-reactivity to other collagen receptors; type: binding, human; conditions: cross-reactivity to α1β1, α2β1, α10β1
Experimental: Wistar rats were immunized with recombinant human α11β1 protein. An enzyme-linked immunosorbent assay (ELISA) was used to test an immune response against target human and mouse proteins. Subsequently, cell fusion (by electro fusion) was performed with animals that produced a good immune response. All fused cells were plated in a 96-well plate and supernatants were screened by ELISA against soluble human and mouse α11β1. Positive clones were counter-screened against human α1β1, α2β1 and α10β1. […] Purified antibodies were then generated from the selected clones and heavy chain and light chain variable domain sequences were obtained from each purified antibody.
10 mice from 5 different strains were immunized with an appropriate mixture of human α11β1, mouse α11β1 and tolerance breaking protein. Plasma titers were evaluated by ELISA against a mixture of human and mouse α11β1. Popliteal, inguinal, and iliac lymph nodes were collected. ELISA-positive anti-human/mouse α11β1 hybridomas were expanded and subjected to a secondary screen against human and mouse α11β1, control HIS protein, and a counter-screen was performed against human […], α2β1 and α10β1. Supernatant IgG concentration was sufficient for functional screening. Selected hybridomas satisfying all the criteria were cloned and clonal hybridomas were confirmed by ELISA against human and mouse α11β1 and subsequently scaled-up and IgGs were purified. Heavy and light chain variable regions of selected hybridomas were then sequenced.
α11β1 belongs to a family of collagen receptors and has a relatively high homology to them. Therefore, the novel antibodies of this invention were counter-screened against α1β1, α2β1 and/or α10β1. Table 2 includes results of cross-reactivity to the other receptors.

[1] = molecular target: T1, α11β1 expressed on the surface of CHO-K1 cells; experiment: FACS antibody binding to CHO-K1 cells expressing human α11; conditions: binding Yes/No
Experimental: 200,000 cells (wild-type CHO-K1 cells or CHO-K1 cells expressing human α11) were incubated with each antibody at desired concentrations in FACS buffer for 30 min at 4° C. Then, the cells were washed with FACS buffer and incubated with secondary antibody at 1:100 dilution for 30 minutes at 4° C. Cells were then washed and fixed with 1% PFA in PBS for 20 minutes at room temperature; washed again and read on a cytometer in FACS buffer.
Since integrins are large, transmembrane receptors that exist in different conformational shapes, experiments were performed to confirm that the novel antibodies also bound cell-expressed α11β1. A CHO-K1 cell line that endogenously expressed high levels of the β1 subunit was engineered to stably express human α11 (CHO-K1 hu α11).
Binding EC50 was estimated using data from Fluorescence-activated cell sorting (FACS) performed with CHO-K1 hu α11β1 cells.

mouse α11β1 = mouse α11β1 (Mus musculus, UniProt P61622); experiment: ELISA binding to recombinant mouse α11β1; conditions: binding Yes/No
Experimental: as §1

Sequence of human α11β1 (P05556 21-728 partner limits assumed, one chain of several): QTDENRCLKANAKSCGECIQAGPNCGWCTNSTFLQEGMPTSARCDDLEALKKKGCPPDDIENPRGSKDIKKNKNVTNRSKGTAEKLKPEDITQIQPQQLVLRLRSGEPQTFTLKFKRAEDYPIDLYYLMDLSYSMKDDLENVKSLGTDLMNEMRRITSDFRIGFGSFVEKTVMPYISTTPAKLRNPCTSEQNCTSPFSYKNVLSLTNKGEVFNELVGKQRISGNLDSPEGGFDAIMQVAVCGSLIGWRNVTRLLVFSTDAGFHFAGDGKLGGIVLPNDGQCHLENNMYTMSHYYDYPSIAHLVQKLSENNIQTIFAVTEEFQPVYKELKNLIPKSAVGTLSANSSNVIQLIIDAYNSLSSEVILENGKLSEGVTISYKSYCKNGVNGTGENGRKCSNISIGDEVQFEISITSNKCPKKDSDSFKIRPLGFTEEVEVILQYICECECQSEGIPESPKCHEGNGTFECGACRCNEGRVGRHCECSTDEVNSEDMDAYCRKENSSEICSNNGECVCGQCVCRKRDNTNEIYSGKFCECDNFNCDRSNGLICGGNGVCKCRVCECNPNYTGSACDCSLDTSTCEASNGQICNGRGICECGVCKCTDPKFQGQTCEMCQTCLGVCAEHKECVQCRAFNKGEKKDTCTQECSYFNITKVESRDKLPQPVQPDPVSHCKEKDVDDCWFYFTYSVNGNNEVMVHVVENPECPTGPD
Sequence of mouse α11β1 (P61622 23-1141 limits assumed): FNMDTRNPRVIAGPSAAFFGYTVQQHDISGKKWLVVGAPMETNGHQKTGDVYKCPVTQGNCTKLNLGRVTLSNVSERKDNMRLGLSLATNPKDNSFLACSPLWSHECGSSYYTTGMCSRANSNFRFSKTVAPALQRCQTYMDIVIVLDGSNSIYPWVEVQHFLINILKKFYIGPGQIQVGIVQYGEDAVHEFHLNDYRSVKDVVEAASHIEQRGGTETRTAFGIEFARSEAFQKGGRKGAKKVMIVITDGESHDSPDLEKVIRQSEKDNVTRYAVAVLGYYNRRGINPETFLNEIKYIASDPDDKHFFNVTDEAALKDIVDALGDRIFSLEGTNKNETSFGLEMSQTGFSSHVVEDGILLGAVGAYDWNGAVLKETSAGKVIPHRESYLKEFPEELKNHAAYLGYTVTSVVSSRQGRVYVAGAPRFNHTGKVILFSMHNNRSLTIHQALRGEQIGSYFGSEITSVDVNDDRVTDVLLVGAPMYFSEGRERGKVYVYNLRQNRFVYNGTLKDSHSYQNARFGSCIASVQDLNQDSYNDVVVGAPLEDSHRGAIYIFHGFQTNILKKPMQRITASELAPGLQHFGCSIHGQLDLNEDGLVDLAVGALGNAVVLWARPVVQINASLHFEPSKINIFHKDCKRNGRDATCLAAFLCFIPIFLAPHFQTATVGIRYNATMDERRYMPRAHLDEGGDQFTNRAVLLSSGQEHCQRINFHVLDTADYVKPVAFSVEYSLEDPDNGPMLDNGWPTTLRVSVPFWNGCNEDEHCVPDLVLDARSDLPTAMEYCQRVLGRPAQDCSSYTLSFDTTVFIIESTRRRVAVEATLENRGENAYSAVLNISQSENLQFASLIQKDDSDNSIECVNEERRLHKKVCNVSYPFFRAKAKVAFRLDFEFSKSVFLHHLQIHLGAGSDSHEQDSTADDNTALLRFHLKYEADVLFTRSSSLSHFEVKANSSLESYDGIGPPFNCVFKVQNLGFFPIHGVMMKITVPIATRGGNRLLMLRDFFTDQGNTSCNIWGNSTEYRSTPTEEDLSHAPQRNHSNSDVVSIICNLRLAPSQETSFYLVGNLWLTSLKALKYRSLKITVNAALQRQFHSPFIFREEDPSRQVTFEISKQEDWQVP
Sequence of mouse α11β1 (P09055 21-728 partner limits assumed): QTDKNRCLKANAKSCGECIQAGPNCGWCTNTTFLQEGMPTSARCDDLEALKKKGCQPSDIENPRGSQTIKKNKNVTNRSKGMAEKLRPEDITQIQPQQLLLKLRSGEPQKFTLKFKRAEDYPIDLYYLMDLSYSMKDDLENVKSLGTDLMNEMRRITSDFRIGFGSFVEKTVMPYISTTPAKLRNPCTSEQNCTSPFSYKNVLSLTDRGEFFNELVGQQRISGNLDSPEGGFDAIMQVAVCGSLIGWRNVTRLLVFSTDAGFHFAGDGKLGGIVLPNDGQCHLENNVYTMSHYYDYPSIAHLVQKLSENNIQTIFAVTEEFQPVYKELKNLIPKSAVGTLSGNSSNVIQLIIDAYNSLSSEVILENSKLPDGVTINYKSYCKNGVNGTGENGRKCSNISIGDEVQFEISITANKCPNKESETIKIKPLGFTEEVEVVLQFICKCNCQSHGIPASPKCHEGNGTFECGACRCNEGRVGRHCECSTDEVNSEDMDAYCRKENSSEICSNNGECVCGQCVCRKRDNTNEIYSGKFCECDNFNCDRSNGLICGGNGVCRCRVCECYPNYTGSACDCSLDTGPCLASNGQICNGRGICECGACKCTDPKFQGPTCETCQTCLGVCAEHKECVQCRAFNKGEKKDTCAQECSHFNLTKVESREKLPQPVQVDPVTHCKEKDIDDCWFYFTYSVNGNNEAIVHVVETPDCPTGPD

| Human α11β1 ELISA (human α11β1) | Off Target (α1β1, α2β1 and/or α10β1) | CHO-K1 FACS [1] | Murine α11β1 ELISA (mouse α11β1) | Molecule |
| --- | --- | --- | --- | --- |
| Yes | No | Yes | No | 7D8B10: rat anti-α11β1 mAb; VH SEQ ID NO: 153, VL SEQ ID NO: 154 (antibody, V domains shown) VH: MDLRLTYVFIVAILKGVLCEVKLEESGGGLVQPGMSVKLSCATSGFIFSDYWMEWVRQAPGKGLEWVAEIRNKANNYATYYGKSMKGRFTISRDDSKSIVYLQVNSIRSEDTAIYYCAPNFDYWGQGVMVTVSS VL: MSPVQSLFLLLLWILGTHGDVVLTQTPPTLSATIGQSVSISCRSSQSLLHSTGNTYLNWLLQRPGQPPQLLIYLVSRLESGVPNRFSASGSGTDFTLKISGIEAEDLGVYYCVQSSHTPYTFGTGTKLELK |
| Yes | No | Yes | Yes/Low | 6-A12: mouse anti-α11β1 mAb; VH SEQ ID NO: 127, VL SEQ ID NO: 128 (antibody, V domains shown) VH: QVTLKESGPGILQPSQTLSLTCSFSGFSLRTFAMGVGWIRQPSGKGLEWLAHIWWDDDKYYNPALKSRLTISKDTSKNQVFLKIANVDTADTATYYCARMPLTFYFDYWGQGTTLTVSS VL: DVLMTQTPLSLPVSLGDQASISCRSSQSIVHSNGNTYLEWYLQKPGQSPKLLIYKVSTRFSGVPDRFSGSGSGTDFTLKISRVEAEDLGVYYCFQGSHVPFTFGGGTKLEIK |
| Yes | No | No | No | 6-O12: mouse anti-α11β1 mAb; VH SEQ ID NO: 117, VL SEQ ID NO: 118 (antibody, V domains shown) VH: EVKLEESGGGLVQPGGSMKLSCAASGFTFSDAWMDWVRQSPEAGLEWVAEIRNKAHNPATYYAESVKGRFTISRDDSKSSVYLQMNSLRAEDTGIYYCTLVAPDAMDYWGQGTSVTVSS VL: DIVMSLSPSSLAVSVGEKVTMSCKSSQSLLYSRNQKNYLAWYQQKPGQSPKLLIYWASTRASGVPDRFTGSGSGTDFTLTISSVKAEDLAVYYCQQYYSYPYTFGGGTKLEIK |
| Yes | No | Yes | Yes/Low | 7-H14: mouse anti-α11β1 mAb; VH SEQ ID NO: 121, VL SEQ ID NO: 122 (antibody, V domains shown) VH: QVQLQQPGAELVRPGASVKLSCKPSGYTFTSYWMNWVKQRPGQGLEWIGMIDPSDSETHYNQMFKDKATLTVDKSSNTAYMQLSSLTSEDSAVYYCAQIYYAYDKAYWGQGTLVTVSA VL: DIVMSQSPSSLAVSVGEKVTMSCKSSQSLLYSSHQKNYLAWYQQKPGQSPKLLIYWASTRESGVPDRFTGSGSGTDFSLTISSVKAEDLAVYYCQEYYSWTFGGGTKLEIK |
| Yes | No | Yes | No | 18E10F10: rat anti-α11β1 mAb; VH SEQ ID NO: 155, VL SEQ ID NO: 156 (antibody, V domains shown) VH: MDIRLSLVFLVLFMKGVQCEVQLVESGGGLVQPGRSLKLSCAASRFTFSDYNMAWVRQAPKKGLEWVATIYHDDSGSYYRDSVKGRFTISRNNAKSTLYLQMDSLRSEDMATYYCARHNNGFDYWGQGVMVTVAS VL: MKWPVRLLVLFFWIPASGGDVVMTQTPVSLPVRLGGQASISCRSSQSLVHSNGNTYLHWYLQKPGQSPQLLINRVSNRFSGVPDRFSGSGSGTDFTLKINRVEPEDLGDYYCLQSTHFPLTFGSGTKLETK |
| Yes | No | No | No | 6-M8: mouse anti-α11β1 mAb; VH SEQ ID NO: 129, VL SEQ ID NO: 130 (antibody, V domains shown) VH: QVQLQQPGAELVMPGASVKLSCKASGYTFTNYWMHWVKQRPGQGLEWIGEIDPSDSYTNYNQKFKGKATLTVDKSSSTAYMQLSSLTSEDSAVYYCTRQGSTYAWGQGTSVTVSS VL: DIVMTQAAFSNPVTLGTSASISCRSSKSLLHSNGITYLYWYLQKPGQSPQLLIYQMSNLASGVPDRFSSSGSGTDFTLRISRVEAEDVGVYYCAQNLELPPTFGGGTKLEIK |
| Yes | No | No | Yes/Low | 6-B21: mouse anti-α11β1 mAb; VH SEQ ID NO: 123, VL SEQ ID NO: 124 (antibody, V domains shown) VH: EVQLQQSGPELVKPGASVKISCKASGYTFTDYYMNWVKQSHGKSLEWIGDINPHNGGTSFIQKFKGKATLTVDKSSSTAYMELRSLTSEDSAVYYCAPLGRKEGFAYWGQGTLVTVSA VL: DTVLTQSPASLVVSLGQRATISCRASKSVSTSGYSYMHWYQQKPGQPPKLLIYLASNLESGVPARFSGSGSGTAFTLNIHPVEEEDAATYYCQHSRELPYTFGGGTKLEIK |
| Yes | No | Yes | No | 9-B11: mouse anti-α11β1 mAb; VH SEQ ID NO: 115, VL SEQ ID NO: 116 (antibody, V domains shown) VH: QVQLQQPGAELVRPGTSVKLSCKASGYTFTSYWMHWVQQRPGQGLEWIGVIDPSDSYTNYNQKFKGKATLTVDTSSSSAYMQLSSLTSEDSAVYYCARDDVAMDYWGQGTSVTVSS VL: DIVVTQSPASLAVSLGQRATISCRASESVDSYGNSFIHWYQQKPGQPPKLLIYRASNLKSGIPARFSGSGSRTDFTLTINPVEADDVATYYCQQSNEDPYTFGGGTKLEIK |
